The target of assay [1] is the different Hsp90 proteins. Kind of assay: ITC; p50^Cdc37 (200 µM) titrated into Hsp90 (20 µM); 50 mM HEPES pH 7.5, 10 mM MgCl2, 30 °C. On the technique in general: In ITC the heat of successive injections is recorded.
Assay [2] deals with T1, human full-length p50^Cdc37 (residues 1-378) (human), Q16543.
T1 chain: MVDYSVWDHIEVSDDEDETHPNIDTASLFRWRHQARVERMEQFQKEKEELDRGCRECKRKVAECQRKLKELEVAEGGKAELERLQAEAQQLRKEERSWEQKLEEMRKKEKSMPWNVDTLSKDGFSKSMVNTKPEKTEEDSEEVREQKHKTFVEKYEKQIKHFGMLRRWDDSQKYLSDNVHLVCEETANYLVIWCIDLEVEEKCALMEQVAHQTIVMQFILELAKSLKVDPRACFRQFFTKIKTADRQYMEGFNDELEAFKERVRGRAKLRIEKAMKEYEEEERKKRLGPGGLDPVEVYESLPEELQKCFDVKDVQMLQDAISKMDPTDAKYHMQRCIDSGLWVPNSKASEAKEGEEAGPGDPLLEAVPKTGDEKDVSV
As to the kind of experiment: SEC; analytical Superdex200 10/300 GL, room temperature, 0.3 mL/min; 85 µM protein in 50 mM HEPES pH 7.5, 50 mM KCl, 5 mM MgCl2, 1 mM DTT; fractions on SDS-PAGE. The settings on record: remark: other sources report otherwise. For orientation: Size exclusion chromatography separates by hydrodynamic size, large species first.

B1: human full-length p50^Cdc37 (residues 1-378) (natural protein)
chain: MVDYSVWDHIEVSDDEDETHPNIDTASLFRWRHQARVERMEQFQKEKEELDRGCRECKRKVAECQRKLKELEVAEGGKAELERLQAEAQQLRKEERSWEQKLEEMRKKEKSMPWNVDTLSKDGFSKSMVNTKPEKTEEDSEEVREQKHKTFVEKYEKQIKHFGMLRRWDDSQKYLSDNVHLVCEETANYLVIWCIDLEVEEKCALMEQVAHQTIVMQFILELAKSLKVDPRACFRQFFTKIKTADRQYMEGFNDELEAFKERVRGRAKLRIEKAMKEYEEEERKKRLGPGGLDPVEVYESLPEELQKCFDVKDVQMLQDAISKMDPTDAKYHMQRCIDSGLWVPNSKASEAKEGEEAGPGDPLLEAVPKTGDEKDVSV
B1: the dissociation constant Kd (as a rule, the concentration at which binding is half-saturated) in assay [1] lay within 1100 to 1900 nM.

B2: human full-length p50^Cdc37 (residues 1-378), Q16543 1-378 (natural protein)
chain: MVDYSVWDHIEVSDDEDETHPNIDTASLFRWRHQARVERMEQFQKEKEELDRGCRECKRKVAECQRKLKELEVAEGGKAELERLQAEAQQLRKEERSWEQKLEEMRKKEKSMPWNVDTLSKDGFSKSMVNTKPEKTEEDSEEVREQKHKTFVEKYEKQIKHFGMLRRWDDSQKYLSDNVHLVCEETANYLVIWCIDLEVEEKCALMEQVAHQTIVMQFILELAKSLKVDPRACFRQFFTKIKTADRQYMEGFNDELEAFKERVRGRAKLRIEKAMKEYEEEERKKRLGPGGLDPVEVYESLPEELQKCFDVKDVQMLQDAISKMDPTDAKYHMQRCIDSGLWVPNSKASEAKEGEEAGPGDPLLEAVPKTGDEKDVSV
On to B2, for which, in assay [2], the stoichiometry N – broadly, the number of molecules, sites or subunits per partner or assembly – was found to be 2.

The values above are taken from publication PMC4601640, “Stability of the Human Hsp90-p50^Cdc37 Chaperone Complex against Nucleotides and Hsp90 Inhibitors, and the Influence of Phosphorylation by Casein Kinase 2” (Molecules, 2015).
